# According to publication PMC11742113 (Molecular Biology of the Cell, 2025):
# T1: S. aureus FtsZ, full length (Staphylococcus aureus, UniProt P0A031 1-390, FITC label, ~0.7 FITC per FtsZ)
# T1 sequence: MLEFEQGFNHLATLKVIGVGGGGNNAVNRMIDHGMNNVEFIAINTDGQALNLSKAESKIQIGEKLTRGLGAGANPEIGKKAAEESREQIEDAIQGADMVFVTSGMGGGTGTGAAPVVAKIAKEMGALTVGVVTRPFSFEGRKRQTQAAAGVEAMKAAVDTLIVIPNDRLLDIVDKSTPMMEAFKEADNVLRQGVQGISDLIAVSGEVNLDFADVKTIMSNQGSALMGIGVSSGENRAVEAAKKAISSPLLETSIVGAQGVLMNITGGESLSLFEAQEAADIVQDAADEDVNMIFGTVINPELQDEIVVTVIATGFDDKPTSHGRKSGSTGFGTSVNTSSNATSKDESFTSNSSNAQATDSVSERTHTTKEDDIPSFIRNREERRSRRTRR
# B1: S. aureus GpsB (natural protein)
# chain: MSDVSLKLSAKDIYEKDFEKTMARGYRREEVDAFLDDIIADYQKMADMNNEVVKLSEENHKLKKELEELRLRVATSRPQDNKSFSSNNTTTNTSSNNVDILKRISNLEKAVFGK
# Target: T1, S. aureus FtsZ, full length
# Experiment: other fluorescence titration
binder,measurement,value
B1,Kd,53.8 ± 8 µM
